Experimental data from EP4663662A1.
pEC50, pKd: −log10 of the molar value. Like-named read-outs stand apart in the source and are kept apart here. One block for each substance: values may come before it.

Tests used:
[1] = biological target: cynomolgus monkey BCMA (cynomolgus monkey); test: flow cytometry, cynomolgus BCMA-CHOK1 cells; control
[2] = biological target: cynomolgus monkey GPRC5D (cynomolgus monkey); test: flow cytometry, cynomolgus GPRC5D-CHOK1 cells; control
human BCMA (human) [3] = biological target: human BCMA (human) (UniProt Q02223); test: flow cytometry, human BCMA-CHOK1 cells; control
[4] = biological target: cynomolgus monkey BCMA (cynomolgus monkey); test: flow cytometry, cynomolgus BCMA-CHOK1 cells; control; remark: listed apart in the source
human GPRC5D (human) [5] = biological target: human GPRC5D (human) (UniProt Q9NZD1); test: flow cytometry, human GPRC5D-CHOK1 cells; control
human BCMA (human) [6] = biological target: human BCMA (human) (UniProt Q02223); test: flow cytometry, human BCMA-CHOK1 cells; control; remark: listed apart in the source
human GPRC5D (human) [7] = biological target: human GPRC5D (human) (UniProt Q9NZD1); test: flow cytometry, NCI-H929 cells; control
[8] = biological target: cynomolgus monkey GPRC5D (cynomolgus monkey); test: flow cytometry, cynomolgus GPRC5D-CHOK1 cells; control; remark: listed apart in the source
[9] = biological target: human CD3 protein (Acro, Cat. No. CDD-H52W1) (human) (UniProt P07766); test: SPR (Biacore), CD3 immobilised on CM5, antibody as analyte, 1:1 fit
[10] = biological target: cynomolgus monkey CD3 protein (Acro, Cat. No. CDD-C52W4) (cynomolgus monkey) (UniProt Q95LI5); test: as above
soluble BCMA = soluble BCMA (UniProt Q02223); test: cell-based or functional assay
[11] = biological target: cynomolgus monkey BCMA (cynomolgus monkey); test: flow cytometry, cynomolgus BCMA-CHOK1 cells
[12] = biological target: human CD3 on cells (Jurkat cells, human PBMCs) (human) (UniProt P07766); test: flow cytometry, Jurkat cells
[13] = biological target: human BCMA protein (Acro, Cat. No. BCA-H522y) (human) (UniProt Q02223); test: SPR (Biacore), antibody captured by anti-human IgG Fc, BCMA as analyte, 1:1 fit
[14] = biological target: cynomolgus monkey BCMA protein (Acro, Cat. No. BCA-C52H7) (cynomolgus monkey); test: as above
human GPRC5D (human) [15] = biological target: human GPRC5D (human) (UniProt Q9NZD1); test: flow cytometry, human GPRC5D-CHOK1 cells
human BCMA (human) [16] = biological target: human BCMA (human) (UniProt Q02223); test: flow cytometry, human BCMA-CHOK1 cells
human BCMA (human) [17] = biological target: human BCMA (human) (UniProt Q02223); test: flow cytometry, RPMI8226 cells (express BCMA and GPRC5D)
[18] = biological target: human CD3 on cells (Jurkat cells, human PBMCs) (human) (UniProt P07766); test: flow cytometry, human PBMCs
human BCMA (human) [19] = biological target: human BCMA (human) (UniProt Q02223); test: flow cytometry, NCI-H929 cells (express BCMA and GPRC5D)
[20] = biological target: cynomolgus monkey CD3 on cyno PBMCs (cynomolgus monkey) (UniProt Q95LI5); test: flow cytometry, cyno PBMCs
[21] = biological target: dual targets human BCMA and human GPRC5D on tumor cells (NCI-H929, RPMI8226) (human); test: flow cytometry, RPMI8226 cells (express BCMA and GPRC5D); negative control
human GPRC5D (human) [22] = biological target: human GPRC5D (human) (UniProt Q9NZD1); test: flow cytometry, human GPRC5D-CHOK1 cells; negative control
[23] = biological target: human CD3 on cells (Jurkat cells, human PBMCs) (human) (UniProt P07766); test: flow cytometry, human PBMCs; negative control
[24] = biological target: dual targets human BCMA and human GPRC5D on tumor cells (NCI-H929, RPMI8226) (human); test: flow cytometry, NCI-H929 cells (express BCMA and GPRC5D); negative control
[25] = biological target: human CD3 on cells (Jurkat cells, human PBMCs) (human) (UniProt P07766); test: flow cytometry, Jurkat cells; negative control
[26] = biological target: cynomolgus monkey CD3 on cyno PBMCs (cynomolgus monkey) (UniProt Q95LI5); test: flow cytometry, cyno PBMCs; negative control
human BCMA (human) [27] = biological target: human BCMA (human) (UniProt Q02223); test: flow cytometry, human BCMA-CHOK1 cells; negative control

Sequence of cynomolgus monkey BCMA (cynomolgus monkey) (Q02223 other isoform, or with tags, fused parts or gaps): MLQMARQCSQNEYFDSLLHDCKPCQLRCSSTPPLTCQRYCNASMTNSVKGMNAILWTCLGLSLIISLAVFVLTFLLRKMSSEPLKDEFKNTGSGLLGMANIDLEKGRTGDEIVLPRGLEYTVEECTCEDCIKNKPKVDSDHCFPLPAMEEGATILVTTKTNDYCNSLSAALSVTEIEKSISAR
Sequence of human BCMA (human) (Q02223 whole entry): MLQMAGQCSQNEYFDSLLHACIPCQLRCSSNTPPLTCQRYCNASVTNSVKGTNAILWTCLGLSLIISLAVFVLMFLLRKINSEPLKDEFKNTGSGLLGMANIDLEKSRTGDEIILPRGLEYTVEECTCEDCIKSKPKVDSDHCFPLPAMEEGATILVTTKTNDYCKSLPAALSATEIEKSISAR
Sequence of cynomolgus monkey CD3 protein (Acro, Cat. No. CDD-C52W4) (cynomolgus monkey) (Q95LI5 22-117): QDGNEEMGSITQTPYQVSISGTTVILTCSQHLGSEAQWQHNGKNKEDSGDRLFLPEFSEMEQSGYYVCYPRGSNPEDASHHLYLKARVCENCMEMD
Sequence of human GPRC5D (human) (Q9NZD1 whole entry): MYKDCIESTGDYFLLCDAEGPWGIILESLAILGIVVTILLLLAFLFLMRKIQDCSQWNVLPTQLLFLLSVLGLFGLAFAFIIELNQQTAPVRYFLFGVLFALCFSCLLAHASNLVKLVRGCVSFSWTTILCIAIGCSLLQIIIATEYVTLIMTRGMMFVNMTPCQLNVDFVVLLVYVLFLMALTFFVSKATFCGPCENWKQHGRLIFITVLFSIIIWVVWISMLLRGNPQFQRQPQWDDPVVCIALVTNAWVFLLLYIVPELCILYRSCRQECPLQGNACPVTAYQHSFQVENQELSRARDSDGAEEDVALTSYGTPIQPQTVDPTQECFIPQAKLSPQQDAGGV
Sequence of human CD3 protein (Acro, Cat. No. CDD-H52W1) (human) (P07766 23-126): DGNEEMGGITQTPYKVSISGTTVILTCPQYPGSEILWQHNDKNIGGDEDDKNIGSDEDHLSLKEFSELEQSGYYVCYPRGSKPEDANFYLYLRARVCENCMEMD
Sequence of human CD3 on cells (Jurkat cells, human PBMCs) (human) (P07766 23-207): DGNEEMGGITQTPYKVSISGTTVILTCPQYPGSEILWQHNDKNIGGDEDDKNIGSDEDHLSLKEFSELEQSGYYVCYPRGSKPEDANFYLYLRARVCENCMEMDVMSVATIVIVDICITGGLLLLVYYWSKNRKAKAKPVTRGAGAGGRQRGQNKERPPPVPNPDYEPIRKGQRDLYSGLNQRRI
Sequence of cynomolgus monkey CD3 on cyno PBMCs (cynomolgus monkey) (Q95LI5 22-198): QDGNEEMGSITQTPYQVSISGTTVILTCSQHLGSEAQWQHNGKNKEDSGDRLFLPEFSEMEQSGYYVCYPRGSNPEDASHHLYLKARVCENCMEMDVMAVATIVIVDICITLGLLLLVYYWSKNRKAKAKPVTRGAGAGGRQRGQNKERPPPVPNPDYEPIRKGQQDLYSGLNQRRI
Sequence of human BCMA protein (Acro, Cat. No. BCA-H522y) (human) (Q02223 1-54 limits assumed): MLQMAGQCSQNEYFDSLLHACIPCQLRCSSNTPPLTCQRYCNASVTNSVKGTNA
Sequence of dual targets human BCMA and human GPRC5D on tumor cells (NCI-H929, RPMI8226) (human) (chain, as listed by the source, chain 1 of 2): as the sequence (Q02223 whole entry) above
Sequence of dual targets human BCMA and human GPRC5D on tumor cells (NCI-H929, RPMI8226) (human) (chain, as listed by the source, chain 2 of 2): as the sequence (Q9NZD1 whole entry) above
Sequence of cynomolgus monkey GPRC5D (cynomolgus monkey) (Q9NZD1 other isoform, or with tags, fused parts or gaps): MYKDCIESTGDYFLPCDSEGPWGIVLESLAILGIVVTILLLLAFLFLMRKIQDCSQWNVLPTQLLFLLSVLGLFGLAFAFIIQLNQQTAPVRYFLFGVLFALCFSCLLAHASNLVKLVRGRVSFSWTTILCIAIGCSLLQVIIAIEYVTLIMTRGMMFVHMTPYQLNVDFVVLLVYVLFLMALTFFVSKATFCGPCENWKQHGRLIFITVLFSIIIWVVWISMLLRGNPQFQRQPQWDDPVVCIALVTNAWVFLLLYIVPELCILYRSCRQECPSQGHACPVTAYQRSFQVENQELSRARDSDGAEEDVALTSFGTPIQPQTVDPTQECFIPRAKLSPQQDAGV
Sequence of soluble BCMA (Q02223 1-54 limits assumed): as the sequence (Q02223 1-54 limits assumed) above

Top MFI [1]: 382 MFI
Top MFI [2]: 85 MFI
Top MFI (human BCMA (human) [3]): 89.1 MFI
Top MFI [4]: 82.6 MFI
Top MFI (human GPRC5D (human) [5]): 36 MFI
Top MFI (human BCMA (human) [6]): 232 MFI
Top MFI (human GPRC5D (human) [7]): 178 MFI
Top MFI [8]: 1840 MFI
Substance: IgG1 AA (antibody)

pKd [9]: 7.74
koff [9]: 0.00201 s⁻¹
kon [9]: 112000 M⁻¹ s⁻¹
pKd [10]: 7.65
koff [10]: 0.00379 s⁻¹
kon [10]: 170000 M⁻¹ s⁻¹
Substance: Talquetamab analogue (GPRC5D/CD3) (bispecific antibody)

Substance: Teclistamab analogue (BCMA/CD3) (bispecific antibody)
Ratio (EC50) of TDCC on NCI-H929, 2.5 ug/ml BCMA against 0 ug/ml BCMA (soluble BCMA): 21 fold
fold change of TDCC EC50 on NCI-H929 in the presence of 2500 ng/ml soluble BCMA (soluble BCMA): 25 fold
pEC50 [11]: 7.81
Top MFI [11]: 1770 MFI
pEC50 [12]: 8.49
Top MFI [12]: 825 MFI
pKd [13]: 9.42
koff [13]: 0.00135 s⁻¹
kon [13]: 3.55e+06 M⁻¹ s⁻¹
pKd [14]: 8.07
koff [14]: 0.0235 s⁻¹
kon [14]: 2.77e+06 M⁻¹ s⁻¹
Top MFI (human GPRC5D (human) [15]): 160 MFI
pEC50 (human BCMA (human) [16]): 8.58
Top MFI (human BCMA (human) [16]): 2280 MFI
pEC50 (human BCMA (human) [17]): 8.93
Top MFI (human BCMA (human) [17]): 169 MFI
pEC50 [18]: 8.22
Top MFI [18]: 672 MFI
pEC50 (human BCMA (human) [19]): 8.61
Top MFI (human BCMA (human) [19]): 669 MFI
pKd [9]: 7.68
koff [9]: 0.00522 s⁻¹
kon [9]: 248000 M⁻¹ s⁻¹
pKd [10]: 7.68
koff [10]: 0.00336 s⁻¹
kon [10]: 159000 M⁻¹ s⁻¹
pEC50 [20]: 7.25
Top MFI [20]: 2060 MFI

Top MFI [21]: 112 MFI
Top MFI (human GPRC5D (human) [22]): 100 MFI
Top MFI [23]: 96.1 MFI
Top MFI [24]: 104 MFI
Top MFI [25]: 77.6 MFI
Top MFI [26]: 93.3 MFI
Top MFI (human BCMA (human) [27]): 119 MFI
Substance: hIgG1 LALA isotype (Biointron, Cat. No. B109802) (antibody)
